Measurements as given in paper PMC7118729.

Target: Nsp15 endoribonuclease WT (SARS coronavirus, UniProt P0C6X7 6430-6775)

Binder | IC50 [nM] | Ki [nM]
AAAAAAAAAAAAAAAA (ssRNA) [rA16] | 53 | 7.6
UUUUUUUUUUUUUUUU (ssRNA) [rU16 (U16)] | 15 | 2.3
